Patent US20240376149A1, “Novel Modulators of GABABR1a” (VIB VZW, priority 2021, published 2024)
Values belong to the binder of their own block, whether it stands above or below them. Where no end group is shown, it is not given here.

Key:
[1] = target: T1, Sushi domain 1 of the human GABA B1a receptor (human, UniProt Q9UBS5 26-96); experiment: ITC, peptide titrated into purified SD1
T1 construct: Purified recombinant protein from E. coli; also called SD1; GABABR1a-SD1
Protocol: First, we wondered whether the wild-type sAPP 9-mer peptide would be the optimal sequence in terms of SD1 binding or whether sequence variants of the sAPP 9-mer would have improved binding to the GABABR1a-SD1. Therefore a panel of single and double sAPP 9-mer mutants was generated. An alanine scan was performed for the residues on position 1 to position 7. Based on an ITC assay, these single mutant peptides bound the SD1 with the same or slightly higher Kd (Table 1). Also the double mutants VIB_P04, VIB_P05 and VIB_P19 bound with a similar Kd to SD1 compared to the wild-type 9-mer. We have also tested the effect of the D-isomer of the amino residues on position 1 to 4, in single or multiple combinations. None of the mutations had strong effects on the measured Kd (Table 1). We therefore conclude that the wild-type sAPP 9-mer is already optimized but that many variants bind as good to SD1 and thus will modulate GABABR1a in a similar manner.
The Sushi-1 protein was dialysed overnight to PBS buffer and diluted to 30 μM in the same buffer. The peptides were resuspended in PBS at a stock concentration of 3 mM and diluted further in the same buffer to 300 μM. ITC experiments were performed on a Microcal ITC200 device. Titrations comprised 26×1.5 μL injections of peptide into protein, with 90 s intervals. An initial injection of ligand (0.5 μL) was made and discarded during data analysis. The data were fitted to a single binding site model using the Microcal LLC ITC₂₀₀. Original software provided by the manufacturer.

[2] = target: T1, Sushi domain 1 of the human GABA B1a …; experiment: FP competition vs FITC-9mer on purified SD1; 9-mer
Protocol: (§1) To screen for GABABR1a binders using unlabelled test compounds, the assay was turned into a competition assay using FITC-9mer. […] To validate this inhibitor assay, the IC50 values were determined of the 17-mer, 9-mer, 5-mer as well as those from 3 negative controls: 10-mer, scrambled 17-mer and a scrambled 9-mer (FIG. 2).
To determine if the peptides of this application were able to disrupt the SD1-9-mer complex, each peptide (in single point or dose-response curve) tested was incubate with SD1 protein for 1 h at RT. After this initially incubation, FITC-9mer was added to the previous mix and incubated during 2 h at RT. The signal intensity was measure in an appropriate plate reader using the following settings: Number of flashes per well: 200; Excitation: F482-16; Dichroic filter: FLP 504; Emission A F530-40; Gain A: 738, Gain B: 736. The assay was conducted in a 384-well plate.

[3] = target: T1, Sushi domain 1 of the human GABA B1a …; experiment: fluorescence polarization, SD1 titrated against 0.14 µM FITC-9mer; concentration is that of SD1
[4] = target: T1, Sushi domain 1 of the human GABA B1a …; experiment: fluorescence polarization, SD1 titrated against 3.7 µM FITC-9mer; concentration is that of SD1
[5] = target: T1, Sushi domain 1 of the human GABA B1a …; experiment: fluorescence polarization, SD1 titrated against 0.05 µM FITC-9mer; concentration is that of SD1
[6] = target: T1, Sushi domain 1 of the human GABA B1a …; experiment: fluorescence polarization, SD1 titrated against 1.2 µM FITC-9mer; concentration is that of SD1
[7] = target: T1, Sushi domain 1 of the human GABA B1a …; experiment: fluorescence polarization, SD1 titrated against 0.41 µM FITC-9mer; concentration is that of SD1
[8] = target: T1, Sushi domain 1 of the human GABA B1a …; experiment: fluorescence polarization, SD1 titrated against 11.11 µM FITC-9mer; concentration is that of SD1
[9] = target: GABABR1b expressed on cells (UniProt Q9UBS5-2 30-474, limits assumed); experiment: cell-based binding assay, flow cytometry
[10] = target: T1, Sushi domain 1 of the human GABA B1a …; experiment: FP competition vs FITC-9mer on purified SD1; 17-mer
Protocol: Intrigued by the surprising results of the 5-mer, it was decided to set up a medium- to high-throughput screen to optimize the 5-mer sequence. Several assays were tested to find a reproducible, robust and cost-effective assay that is also suitable for high-throughput screening. A fluorescence polarization (FP) assay was selected. FP measurements are well-known for receptor binding assays. The assay is based on the rotational movement of fluorescently labelled molecules in solution. […] The FP assay was optimized using the FITC labelled sAPP 9-mer (FIG. 1).
as §1

T1 sequence (Q9UBS5 26-96 limits assumed): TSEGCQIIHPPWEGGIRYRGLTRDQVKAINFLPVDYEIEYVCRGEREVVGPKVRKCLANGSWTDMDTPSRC
GABABR1b expressed on cells, sequence (Q9UBS5 other isoform, or with tags, fused parts or gaps limits assumed): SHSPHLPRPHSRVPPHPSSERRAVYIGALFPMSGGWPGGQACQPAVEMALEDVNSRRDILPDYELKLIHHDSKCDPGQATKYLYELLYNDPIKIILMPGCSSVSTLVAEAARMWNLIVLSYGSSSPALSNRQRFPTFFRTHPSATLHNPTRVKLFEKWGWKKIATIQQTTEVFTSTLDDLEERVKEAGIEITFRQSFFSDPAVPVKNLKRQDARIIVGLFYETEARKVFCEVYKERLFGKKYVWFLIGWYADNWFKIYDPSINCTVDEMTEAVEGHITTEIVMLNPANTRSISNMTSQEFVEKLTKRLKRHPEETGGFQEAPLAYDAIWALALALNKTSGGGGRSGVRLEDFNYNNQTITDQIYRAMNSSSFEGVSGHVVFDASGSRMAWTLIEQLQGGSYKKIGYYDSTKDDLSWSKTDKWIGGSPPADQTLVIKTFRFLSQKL

- Kd [1]: 3000 nM
- IC50 [2]: 11000 nM
Binder: DDSDVWWGG (Unlabelled) [wild-type sAPP 9-mer]

- IC50 [10]: 1700 nM
Binder: DDSDVWWGGADTDYADG [wild-type sAPP 17-mer]

The next lines start with the binder.

Binder: DDSDVWWGG (also: FITC label, site not given here, also called FITC-9mer) [FITC labelled sAPP 9-mer]
- EC50 (read off the curve) [3]: ~1000 nM
- EC50 (read off the curve) [4]: ~4000 nM
- EC50 (read off the curve) [5]: ~800 nM
- EC50 (read off the curve) [6]: ~2000 nM
- EC50 (read off the curve) [7]: ~1000 nM
- EC50 (read off the curve) [8]: ~8000 nM

Binder: DDSDVWWGG (also: biotin tag, site not given here, also called biotin-9mer; biotion-9mer) [9-mer tagged with Biotin]
- binding result [9]: no binding
